For the assay, the target named is T1, transferrin receptor (TfR/CD71) on TfR-expressing LAPC-4 cells (human, UniProt P02786 1-760).
T1 construct: whole, on cells
Put plainly: binding of dendrimer to cells in vitro; method not detailed.

These results are taken from patent publication US20150359907A1 (GENISPHERE, published 2015).

Ends that are not written are not given here.

T1 sequence (P02786 whole entry): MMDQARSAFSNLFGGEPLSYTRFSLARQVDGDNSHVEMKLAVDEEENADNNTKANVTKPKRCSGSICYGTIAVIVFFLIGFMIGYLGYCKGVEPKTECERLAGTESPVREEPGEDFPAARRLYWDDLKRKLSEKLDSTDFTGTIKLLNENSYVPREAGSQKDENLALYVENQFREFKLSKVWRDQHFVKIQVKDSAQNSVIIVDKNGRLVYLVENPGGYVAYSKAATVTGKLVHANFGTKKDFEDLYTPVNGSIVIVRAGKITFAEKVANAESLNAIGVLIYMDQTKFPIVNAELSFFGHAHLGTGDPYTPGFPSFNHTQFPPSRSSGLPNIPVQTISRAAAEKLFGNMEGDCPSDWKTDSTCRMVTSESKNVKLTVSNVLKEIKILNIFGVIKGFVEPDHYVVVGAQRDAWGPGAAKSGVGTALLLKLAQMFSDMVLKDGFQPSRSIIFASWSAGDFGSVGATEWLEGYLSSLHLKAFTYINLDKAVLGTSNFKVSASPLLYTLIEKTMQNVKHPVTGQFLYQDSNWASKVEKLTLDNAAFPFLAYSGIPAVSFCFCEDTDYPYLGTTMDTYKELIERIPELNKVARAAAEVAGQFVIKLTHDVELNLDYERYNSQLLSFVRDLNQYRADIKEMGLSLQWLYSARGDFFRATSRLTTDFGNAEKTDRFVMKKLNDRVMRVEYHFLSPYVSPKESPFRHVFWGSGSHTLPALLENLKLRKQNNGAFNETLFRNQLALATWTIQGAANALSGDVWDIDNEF

B1: TfR peptide-derivatized dendrimer (transferrin receptor (TfR/CD71) targeting peptide THRPPMWSPVWP on a 2-layer DNA dendrimer) (peptide)
peptide: THRPPMWSPVWP
modifications: also: coupled to oligonucleotide cplCap03 on a DNA dendrimer, site not given here
notes: The peptide-oligonucleotide conjugate was hybridised to capture oligonucleotides on a Cy3-labelled 2-layer DNA dendrimer carrying a ligated plasmid; About 2-5 peptides per dendrimer molecule; The protein part is only the 12-mer peptide; also called TfR targeting peptide; 2n-Cy3 3DNA-TfR peptide-K5/CFP
With B1, the binding result is “binds”.
